Reference: IntAct's records for PubMed 26221972

B1: T-lymphocyte surface antigen Ly-9 (Homo sapiens), Q9HBG7 (parent)
chain: MVAPKSHTDDWAPGPFSSKPQRSQLQIFSSVLQTSLLFLLMGLRASGKDSAPTVVSGILGGSVTLPLNISVDTEIENVIWIGPKNALAFARPKENVTIMVKSYLGRLDITKWSYSLCISNLTLNDAGSYKAQINQRNFEVTTEEEFTLFVYEQLQEPQVTMKSVKVSENFSCNITLMCSVKGAEKSVLYSWTPREPHASESNGGSILTVSRTPCDPDLPYICTAQNPVSQRSSLPVHVGQFCTDPGASRGGTTGETVVGVLGEPVTLPLALPACRDTEKVVWLFNTSIISKEREEAATADPLIKSRDPYKNRVWVSSQDCSLKISQLKIEDAGPYHAYVCSEASSVTSMTHVTLLIYRRLRKPKITWSLRHSEDGICRISLTCSVEDGGNTVMYTWTPLQKEAVVSQGESHLNVSWRSSENHPNLTCTASNPVSRSSHQFLSENICSGPERNTKLWIGLFLMVCLLCVGIFSWCIWKRKGRCSVPAFCSSQAEAPADTPEPTAGHTLYSVLSQGYEKLDTPLRPARQQPTPTSDSSSDSNLTTEEDEDRPEVHKPISGRYEVFDQVTQEGAGHDPAPEGQADYDPVTPYVTEVESVVGENTMYAQVFNLQGKTPVSQKEESSATIYCSIRKPQVVPPPQQNDLEIPESPTYENFT
partner: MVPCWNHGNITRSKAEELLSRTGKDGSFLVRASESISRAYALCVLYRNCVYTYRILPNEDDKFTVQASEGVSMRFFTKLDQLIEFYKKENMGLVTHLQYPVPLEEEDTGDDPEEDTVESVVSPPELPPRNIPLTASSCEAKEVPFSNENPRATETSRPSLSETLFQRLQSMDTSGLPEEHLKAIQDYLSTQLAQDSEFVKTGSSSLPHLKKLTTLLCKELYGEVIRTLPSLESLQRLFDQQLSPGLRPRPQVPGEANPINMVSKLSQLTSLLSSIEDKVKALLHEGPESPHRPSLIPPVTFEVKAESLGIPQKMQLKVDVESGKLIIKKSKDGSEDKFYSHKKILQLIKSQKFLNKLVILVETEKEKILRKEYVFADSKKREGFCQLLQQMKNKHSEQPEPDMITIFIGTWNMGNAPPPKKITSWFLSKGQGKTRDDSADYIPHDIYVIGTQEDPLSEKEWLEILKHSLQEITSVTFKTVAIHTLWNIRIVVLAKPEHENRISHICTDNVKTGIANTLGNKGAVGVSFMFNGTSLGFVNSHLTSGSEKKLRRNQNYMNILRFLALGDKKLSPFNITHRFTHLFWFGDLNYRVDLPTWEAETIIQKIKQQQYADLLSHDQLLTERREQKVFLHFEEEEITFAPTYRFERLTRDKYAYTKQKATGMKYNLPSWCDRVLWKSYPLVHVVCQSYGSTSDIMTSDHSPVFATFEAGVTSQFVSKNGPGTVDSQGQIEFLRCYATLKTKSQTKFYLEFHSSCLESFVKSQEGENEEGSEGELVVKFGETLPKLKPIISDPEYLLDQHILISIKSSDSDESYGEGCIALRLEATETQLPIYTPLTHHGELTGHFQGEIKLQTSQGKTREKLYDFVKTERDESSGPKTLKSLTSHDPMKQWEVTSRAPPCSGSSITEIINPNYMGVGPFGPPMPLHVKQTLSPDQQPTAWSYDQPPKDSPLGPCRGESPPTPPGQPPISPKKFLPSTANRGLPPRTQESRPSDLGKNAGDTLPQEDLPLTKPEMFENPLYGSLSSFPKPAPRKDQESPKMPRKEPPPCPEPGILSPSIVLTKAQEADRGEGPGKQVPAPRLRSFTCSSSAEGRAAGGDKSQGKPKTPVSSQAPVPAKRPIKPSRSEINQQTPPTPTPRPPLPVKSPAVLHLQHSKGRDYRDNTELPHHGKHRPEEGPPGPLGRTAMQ
B2: T-lymphocyte surface antigen Ly-9 (Homo sapiens), Q9HBG7 (parent)
chain: B1 chain
partner: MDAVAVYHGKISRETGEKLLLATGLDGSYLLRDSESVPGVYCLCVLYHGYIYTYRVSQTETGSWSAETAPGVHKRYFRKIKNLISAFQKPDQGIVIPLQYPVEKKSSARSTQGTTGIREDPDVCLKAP

Variants of: B1
Settings: with ship1_human INPP5D

effect of a mutation on the interaction | Variant
decreasing interaction | M602V

Variants of: B2
Settings: with sh21a_human SH2D1A

effect of a mutation on the interaction | Variant
decreasing interaction | M602V
